From article PMC8437459

Molecular target: T1, MgaSpn (Streptococcus pneumoniae D39 (JH1900)) (UniProt A0A0H2ZN44)
T1 sequence: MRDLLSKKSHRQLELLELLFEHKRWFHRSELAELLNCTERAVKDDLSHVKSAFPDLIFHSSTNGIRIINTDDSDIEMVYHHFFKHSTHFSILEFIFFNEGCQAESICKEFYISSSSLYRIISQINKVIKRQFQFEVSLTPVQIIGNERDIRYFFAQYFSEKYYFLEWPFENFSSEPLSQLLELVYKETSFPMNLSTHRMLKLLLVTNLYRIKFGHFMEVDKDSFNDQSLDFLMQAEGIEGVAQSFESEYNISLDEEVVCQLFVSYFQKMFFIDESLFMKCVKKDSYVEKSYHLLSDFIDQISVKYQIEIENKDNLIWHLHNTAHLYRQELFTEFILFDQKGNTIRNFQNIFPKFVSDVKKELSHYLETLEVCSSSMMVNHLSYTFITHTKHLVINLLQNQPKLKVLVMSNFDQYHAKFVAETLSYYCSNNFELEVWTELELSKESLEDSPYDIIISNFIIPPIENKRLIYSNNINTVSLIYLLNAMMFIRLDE
Assay: EMSA

For “TACACATCTGCTTCTAAAATATTGTTAGAAAACGATTTGACTGTCCTGATCAATTTGTCATGTTCTTATTTCATTTTACTATATTTTTGGTTCGCGGGAAGTCTACTAAGATACTTAAAGATGCAGATAGTGAAAAAAGGTGTAGACATTACCGTAAAAAAGTGATATAATCGTAAGATGTTCAATGTATAGGTGTTAATCATGAGTAGACGTTTTAA (double strand) [Pcps probe (EMSA)]”, the binding was “binds”.
